Source: PMC12458545, “Repurposing a Detrimental Antibody Epitope as Targeted Therapeutics for Sepsis and Rheumatoid Arthritis” (Research Square, 2025)
“Also recorded” adds a separate entry of the source.

Key:
CLP-induced sepsis [1] = assay: CLP sepsis survival; type: in vivo, Balb/C mice
Description: Experimental sepsis was induced in Balb/C mice via cecal ligation and puncture (CLP) as previously described,[30],[37]. […] Briefly, mice were anesthetized intramuscularly with ketamine (75 mg/kg, Henry Schein Animal Health, Dublin, Ohio) and xylazine (10 mg/kg, Sigma-Aldrich) before a midline abdominal incision was made in the lower left abdomen. The cecum was ligated with a 4–0 silk suture at 50% of its length from the distal end, and punctured twice with a 21-gauge needle to induce moderate to severe sepsis. The cecum was returned to the abdominal cavity, and the incision was closed in layers. Approximately 30 min post-CLP, animals received imipenem/cilastatin (0.5 mg/mouse, Primaxin, Merck & Co., Inc.) and 1.0 mL of sterile saline for fluid resuscitation. Animals were randomized to control vehicle and experimental groups, administered P2 or P2–1 intraperitoneally at indicated doses and time points, and monitored for survival rates. To elucidate P2–1’s protective mechanisms, a separate group of Balb/C mice underwent CLP and received P2–1 (1.0 mg/kg) at 2 h and 20 h post-CLP. At 24 h post-CLP, animals were euthanized to collect blood and measure serum cytokines and chemokines using murine Cytokine Antibody Arrays.
All data were first assessed for normality using the Shapiro-Wilk test before applying the appropriate statistical analyses. All data are presented as mean ± standard error of the mean (SEM) unless otherwise specified. For comparison among multiple groups with non-normal (skewed) distribution, the Kruskal-Wallis ANOVA test followed by Dunn’s post-hoc test was used to evaluate statistical differences. Survival curves were analyzed using Kaplan-Meier method and compared using the nonparametric log-rank (Mantel-Cox) test. Statistical significance was defined as a P value less than 0.05.

water solubility = type: physicochemical
human PBMCs [2] = details: TN; cited from earlier work
Source text: To validate these RNA-seq findings, we quantified HMGB1-induced cytokine/chemokine protein levels using Cytokine Antibody Arrays.

human PBMCs [3] = assay: RNA-seq of HMGB1-stimulated PBMCs; type: cell-based; details: HMGB1 stimulation alone
Description: (§1) Human blood was purchased from the New York Blood Center (Long Island City, NY, USA), and PBMCs were isolated by density gradient centrifugation through Ficoll (Ficoll-Paque PLUS) as previously described,[30]. PBMCs were cultured in RPMI-1640 supplemented with 10% human serum, 2 mM L-glutamine, 100 U/mL penicillin, and 100 μg/mL streptomycin (all from Invitrogen). For experiments, PBMCs were stimulated with recombinant human HMGB1 (0.5 or 2.0 μg/ml) for 16 hours, either alone or in combination with P2–1 at 5.0 or 10.0 μg/ml. Cell-free supernatants were collected for analysis of cytokines/chemokines levels by Cytokine Antibody Arrays, or pCTS-L levels by Western blotting analysis as described.
Total RNA was isolated from human PBMCs stimulated with HMGB1 in the absence or presence of P2–1 (5.0 or 10.0 μg/ml) using the RNeasy Mini Kit (Qiagen) according to the manufacturer’s instructions. RNA quantity and quality were assessed using a NanoDrop spectrophotometer and an Agilent Bioanalyzer. cDNA libraries were prepared using the TruSeq RNA Library Prep Kit v2 (Illumina) and sequenced on an Illumina NovaSeq 6000 platform to generate 100 bp paired-end reads. Raw sequencing reads were quality-checked using FastQC, trimmed with Trimmomatic, and aligned to the human reference genome (GRCh38) using HISAT2. Gene counts were quantified using StringTie and DESeq2 was used for differential gene expression analysis. Volcano plots and heatmaps were generated using ggplot2 and pheatmap packages in R, respectively. Genes with an adjusted P-value < 0.05 and a |log2-fold change| > 1 were considered differentially expressed.

human PBMCs [4] = assay: HMGB1-induced cytokine/chemokine secretion, Cytokine Antibody Arrays; type: cell-based; details: HMGB1 0.5 or 2.0 μg/ml alone, 16 h
Description: as §1
Levels of cytokines and chemokines in mouse serum and joint tissue lysates, or human PBMC culture supernatants were determined using murine or human Cytokine Antibody Arrays (e.g., Cat. No. M0308003 or Cat. No. AAH-CYT-3–4, RayBiotech Inc., Norcross, GA, USA) as previously described,[30],[86],[87]. Serum samples were collected from mice at 24 h post-CLP. The soft tissue of the hindpaw and ankle joints was carefully collected using a previously described protocol. Briefly, 0.5 g of fresh soft tissue was cut into 3 mm pieces, and mixed with 400 μL of a hypertonic solution (500 mL PBS with 4.5 g NaCl and 2× protease inhibitor cocktail) in a 10 mL syringe. Mechanical extrusion, involving 30 rapid back-and-forth movements of the plunger, was then performed. The expelled extracellular fluid was collected, immediately aliquoted, and stored at −20°C until analysis. Cell-conditioned medium was collected from PBMC cultures after 16 h of stimulation. Arrays were performed according to the manufacturer’s protocol, followed by chemiluminescent detection and densitometric quantification as previously described,[30].

human PBMCs [5] = assay: HMGB1-induced pCTS-L secretion, Western blot; type: cell-based; details: HMGB1 alone
Description: as §1
Cell-conditioned medium from human PBMC cultures was collected, and concentrated using Amicon Ultra Centrifugal Filters. Equal volumes of conditioned medium, representing equivalent numbers of cells, were resolved on sodium dodecyl sulfate (SDS)-polyacrylamide gels and transferred to polyvinylidene difluoride (PVDF) membranes. After blocking with 5% nonfat milk in Tris-buffered saline with 0.1% Tween 20 (TBST), membranes were probed with a home-made primary monoclonal antibody against pCTS-L (e.g., mAb2, 1:1000) overnight as previously described. After washing, membranes were incubated with a horseradish peroxidase-conjugated secondary antibody. Protein bands were visualized using enhanced chemiluminescence (ECL) substrate (Pierce) and detected with a chemiluminescence imaging system (e.g., Bio-Rad ChemiDoc MP). The relative levels of specific proteins were determined using the UN-SCAN-IT Gel Analysis Software Version 7.1 (Silk Scientific Inc., Orem, UT, USA) and expressed in arbitrary units (AU).

TN peptides (P1-P10) = assay: dot blot epitope mapping of anti-TN mAbs with TN peptides P1-P10; type: binding, human; details: peptides 0.1 μg in 2.5 μl on nitrocellulose; mAb 1.0 μg/mL; chemiluminescence
Description: A library of ten synthetic peptides (P1-P10, fig. S1B) corresponding to C-terminus portion of TN protein (fig. S1A) were spotted (0.1 μg in 2.5 μl) onto nitrocellulose membranes (Thermo Scientific, Cat No. 88013). Membranes were blocked with 5% milk in PBS-T (PBS with 0.1% Tween-20) and then incubated with anti-TN monoclonal antibodies (mAb8 or mAb9, 1.0 μg/mL). After washing, membranes were incubated with HRP-conjugated goat anti-mouse IgG (Jackson ImmunoResearch), and signals were detected using chemiluminescence as described,[30].

CLP-induced sepsis [6] = details: anti-TN mAbs; mice; cited from earlier work
[7] = molecular target: T1, P5 peptide of tetranectin (Homo sapiens, UniProt P05452); assay: far-Western, overlay or dot blot; synthetic TN peptides P1-P10 spotted (0.1 μg in 2.5 μl) on nitrocellulose, blocked with 5% milk in PBS-T; mAb8 or mAb9 at 1.0 μg/mL; HRP goat anti-mouse IgG, chemiluminescence; details: both partners purified
T1 construct: synthetic peptide from the C-terminal portion (CRD) of human tetranectin; S1A, S1B; source: synthetic peptide
T1 chain: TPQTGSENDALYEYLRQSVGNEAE

55-KVHMKCFLAFTQTKTF-70 [P2]
survival (CLP-induced sepsis [1]; P2 5.0 mg/kg at 2 h and 24 h post-CLP, 5 mg/kg): significantly increased survival rates in both male and female mice; also recorded: significantly increased animal survival | animal survival (# of Survivors) (CLP-induced sepsis [1]; P2 5.0 mg/kg i.p. at 2 h and 24 h post-CLP, male and female mice, P < 0.05 vs. vehicle): 60% | water solubility (water solubility): poor water solubility

B1: TN: full-length human tetranectin (residues 1-181) (protein, UniProt P05452 22-202, looked up)
Tetranectin: EPPTQKPKKIVNAKKDVVNTKMFEELKSRLDTLAQEVALLKEQQALQTVCLKGTKVHMKCFLAFTQTKTFHEASEDCISRGGTLGTPQTGSENDALYEYLRQSVGNEAEIWLGLNDMAAEGTWVDMTGARIAYKNWETEITAQPDGGKTENCAVLSGAANGKWFDKRCRDQLPYICQFGIV
HMGB1-induced cytokines (e.g., IL-6) and chemokines (e.g., MCP-1) (human PBMCs [2]): did not affect HMGB1-induced cytokines (e.g., IL-6) and chemokines (e.g., MCP-1)

B2: HMGB1: recombinant human HMGB1 expressed in E. coli; PBMC stimulus and SPR target (protein)
chain: MGKGDPKKPRGKMSSYAFFVQTCREEHKKKHPDASVNFSEFSKKCSERWKTMSAKEKGKFEDMAKADKARYEREMKTYIPPKGETKKKFKDPNAPKRPPSAFFLFCSEYRPKIKGEHPGLSIGDVAKKLGEMWNNTAADDKQPYEKKAAKLKEKYEKDIAAYRAKGKPDAAKKGVVKAEKSKKKKEEEEDEEDEEDEEEEEDEEDEDEEEDDDDE
gene expression of inflammatory cytokines and chemokines (human PBMCs [3]): profoundly upregulated many inflammatory cytokines | cytokine and chemokine protein levels (e.g., TNF, IL-6, IL-10, CXCL5, CXCL1, CXCL8, CCL2, CCL7) (human PBMCs [4]): significantly increased protein levels of various cytokines | pCTS-L expression and secretion (human PBMCs [5]): induced pCTS-L expression and secretion in human immune cells

B3: anti-tetranectin monoclonal antibody mAb8 (antibody, V domains shown)
VH: DVNLVESGGGLVKLGGSLKLSCADSGFTFSSYYMSWVRQTPEKRLELVAAINSNGGRTYYPDTVKGRFTISRDNAKNTLYLQMSSLKSEDTALYYCARQGKNGLDYWGQGTSVTVSS
VL: DIQMTQTTSSLSASLGDRVTISCRASQDISNHLNWYQQKPDGTIKLLIYYTSRLHSGVPSRFSGSGSGTDFSLSISNLEQEDIATYFCQQGKTLPPTFGGGTKLEIK
notes: mouse monoclonal antibody; also called protective anti-TN mAb; source: generated in Balb/C and C57BL/6 mice as previously described [6,30]; hybridoma
TN peptide bound in dot blot (TN peptides (P1-P10)): targeted P5; also recorded: binds P5 | effect on septic survival/lethality (CLP-induced sepsis [6]): protected mice against sepsis | binding result [7]: binds
